Measured values: patent US20160130327A1 (Merck Sharp & Dohme, published 2016)
Where a chain is given by its changes, count along the chain named.

B1: 210.4 (antibody, V domains shown)
VH: QSVEESGGRLVTPGTPLTLTCTVSGFSLSTNAMSWVRQAPGKGLEWIGYIWSGGSTYYASWAKGRFAISKTSTTVDLKITSPTTEDTATYFCAKNGDNGQLDLWGQGTLVTVSS
VL: ELVLTQTPSPVSAAVGGTVTINCQTSQSLYNNNFLSWYQQKPGQPPKLLIYKASTLESGVPSRFKGSGSGTQFTLTISGVQCDDAATYYCQGEFSCSSADCNAFGGGTEVVVK
notes: rabbit hybridoma mAb; also called clone 210.4
B2: 58.5 (antibody, V domains shown)
VH: QSLEESGGRLVTPGGSLTLTCTVSGFSLSAYSVSWVRQAPGKGLEWIGIIGHSGNTYYASWAKGRFTISKTSTTVDLKITSLTTEDTATYFCAREDYRYGDYGYYWDFNFWGPGTLVTISS
VL: ELDLTQTASPVSAPVGGTVTINCQASQNIYSNLAWYQQKPGQPPKLLIYGASTLASGVSSRFKGSRSGTEFTLTISDLECADAATYYCQSYVYSSSTADTFGGGTEVVVK
notes: rabbit hybridoma mAb (not the humanized version); also called clone 58.5
B3: 223.4 (antibody, V domains shown)
VH: B2 VH with G15T, S16P, S60N, T84I
VL: ELVMTQTPSPVSAPVGGTVTISCQASRSVYNENYVAWFQHRPGQPPKLLIYTTSILASGVPSRFKGRGSGTQFTLTISDVQCDDAATYYCAGDYDDNEENAFGGGTELEIL
notes: rabbit hybridoma mAb; also called clone 223.4
B4: 124.4 (antibody, V domains shown)
VH: QSLEESGGRLVTPGTPLTLTCTVSGFSLSSCNMGWVRQAPGEGLEWIGYIAASGDAFYASWAKGRFTISKTSSTTVDLRITSPTTEDTAAYFCARGSYAAYNAWDLWGPGTLVTVSS
VL: ELDMTQTASPVSAAVGGTVTINCQSSQSVYNKNYLSWYQQKPGQPPKLLIYGASTLPSGVPSRFKGSGSGTQFTLTISEVQCDDAATYYCQGYYSGYIYAFGGGTEVVVK
notes: rabbit hybridoma mAb; also called clone 124.4
B5: 324.4 (antibody, V domains shown)
VH: QSVKESEGRLVTPGTPLTLTCTVSGFSPSSYNMGWVRQAPGEGLEWIGYISTSGNTFYASWAKGRFTISKTSTTVDLRITSPTTEDTATYFCARGSYVAYNAWDLWGPGTLVTISS
VL: B4 VL with M4L, K32N, P57A
notes: rabbit hybridoma mAb; also called clone 324.4
B6: 350.1 (antibody, V domains shown)
VH: QSLEESGGDLVKPGASLTLTCTASGFSFSNSYYMCWVRQAPGKGLEWIVCIYAGSSGFTYYANWAKGRFTVSKTSSTTVTLQMTSLTAADTATYFCARDRGYYTYGYAGYGYGMDLWGPGTLVTISS
VL: ELDMTQTPSPVSTAVGGTVSISCQSGQNVWTNDYLSWYQQKPGQPPKLLIYRASTLASGVPSRFKGSGSGTQFTLTISDVQCDDAATYYCGGTFLSNGDNGFGGGTEVVVK
notes: rabbit hybridoma mAb; also called clone 350.1; mAb 350.1
B7: 70.7 (antibody, V domains shown)
VH: QSVEESRGRLVTPGTPLTLTCTASGFSLSSYHMIWVRQAPGKGLEWIGYINYNNNPYYATWAKGRFTISRTSTTVALKITSPTTEDSATYFCARAAGNYYVGALNLWGPGTLVTISS
VL: ERDMTQTPASVEVAVGGTVTIKCQASQSIGNLLAWYQQKPGQRPKLLIYDASTLASGVPSRFKGSGSGTEFTLTISGVQCADAATYYCQQGYMITNVENAFGGGTEVVVK
notes: rabbit hybridoma mAb; also called clone 70.7
B8: 316.2 (antibody, V domains shown)
VH: B7 VH with E4K, R7E, Y52N, N54D, E85K, S87T
VL: B7 VL with R2L, D3V, M4L, S28T, A34G, Q42R, R43P, G68A, S76R, A81D
notes: rabbit hybridoma mAb; also called clone 316.2
B9: 270.7 (antibody, V domains shown)
VH: B7 VH with R7G, T18A, G25R, Y31N, S87T
VL: B7 VL with R2L, D3V, K39E, E106N, V108E, V109I
notes: rabbit hybridoma mAb; also called clone 270.7
B10: 57.4 (antibody, V domains shown)
VH: QSLEESGGGLVKPGGTLTLTCTASGFSFSSVYDMSWVRQAPGKGLEWIASIVTGSRTTWYASWAKGRFTVSKTSSTTVTLQMTSLTAADTATYFCARGEYGHDGYVDGTMGLGLWGPGTLVTISS
VL: ELDLTQTPASVEAAVGGTVAIKCQASQSIRRHLSWYQQKPGQRPKLLIYGASNLASGVSSRFKGSGSGTEFTLTISDLECADAATYYCQCTYGVGFSSTYGDAFGGGTELEIL
notes: rabbit hybridoma mAb (not the humanized version); also called clone 57.4; mAb 57.4
B11: 276.10 (antibody, V domains shown)
VH: QSLEESGGDLVQPEGSLTLTCTASGFSFSGSYYMCWVRQAPGTGLEWIACIDGDLSGSAYYANWAKGRFTISGTSSTTVTLQVTSLTAADTATYFCAREGPVGVGSIYLGFDLWGPGTLVTISS
VL: ELDLTQTPASVEVPVGGTVTIKCQASHNINTYLSWYQQKPGQPPKLLIYRASDLASGVSSRFSGSGSGTQFTLTISGVECADAATYYCQQGFNSLNVENVFGGGTEVVVK
notes: rabbit hybridoma mAb (not the humanized version); also called clone 276.10
B12: 212.6 (antibody, V domains shown)
VH: QSLEESGGRLVTPGTPLTLTCTVSGFSLSSYAMSWVRQAPGKGLEWIGIIGSSGNTYYASWAKGRFTISKTSTTVDLKITSPTTEDTATYFCARGGYSYDDYTPFDLWGPGTLVTVSS
VL: ELVLTQSPSLSASLGTTARLTCTLSTGYSVGKYPLVWLQQVPGRPPRYLLTYHTEEFKHQGSGVHSRFSGSKDTSENAGVLSISGLQPEDEADYYCATAHATESSLHYVFGGGTQLTVT
notes: rabbit hybridoma mAb; also called clone 212.6
B13: 347.3 (antibody, V domains shown)
VH: QSLEESEGRLVTPGTPLTLTCTVSGIDLSTYAMNWVRQAPGKGLEWIGIIGSSGGAYYASWAKGRCTISKTSTTVDLKITSPTTEDTATYFCAVSLYTYDDYADYFLWGPGTLVTISS
VL: B12 VL with A78S, G79F, S82R, S84F, A97V, A101P
notes: rabbit hybridoma mAb; also called clone 347.3
B14: 240.8 (antibody, V domains shown)
VH: QSVEESGGGLVTPGGTLTLTCGVSGIDLSANEMGWVRQAPGEGLEWIGTLSYHNIPHYATWAKGRFTISKTSTTVDLKITSPTSADTATYFCGRVFTSTSFDPWGPGTLVTISS
VL: ELVMTHPPASVSAPVGGTVTIKCQASHNIGSRLPWYQQEPGQPPKLLIYRTSTLASGVPSRFTGSGYGTEFTLTISDLECADAATYYCQDHDDISHAFGGGTNVEIK
notes: rabbit hybridoma mAb; also called clone 240.8

Target: T1, revertant virus (AD169 CMV with the pentameric gH complex restored)
T1 construct: also called revertant virion; revertant virions
Experiment: antibody-titration EIA, coated revertant virions

Point of comparison: B2, EC50 0.59 µg/mL. Against it:
- B1 — 20-fold lower, 0.03 µg/mL
- B3 — 2.6-fold higher, 1.54 µg/mL
- B4 — 2.9-fold higher, 1.72 µg/mL
- B5 — 6.9-fold higher, 4.09 µg/mL
- B6 — 29-fold lower, 0.02 µg/mL
- B7 — 2.5-fold higher, 1.46 µg/mL
- B8 — 1.8-fold higher, 1.06 µg/mL
- B9 — within 1.5-fold, 0.68 µg/mL
- B10 — 6.6-fold lower, 0.09 µg/mL
- B11 — 2.4-fold lower, 0.25 µg/mL
- B12 — 90-fold higher, 52.9 µg/mL
- B13 — 1.7-fold lower, 0.34 µg/mL
- B14 — 4.4-fold higher, 2.6 µg/mL

Target: T2, recombinant gB (human cytomegalovirus (CMV), UniProt P06473 32-700)
T2 construct: also called gB protein; recombinant gB antigen
Experiment: EIA on recombinant gB

T2 sequence (P06473 32-700 limits assumed): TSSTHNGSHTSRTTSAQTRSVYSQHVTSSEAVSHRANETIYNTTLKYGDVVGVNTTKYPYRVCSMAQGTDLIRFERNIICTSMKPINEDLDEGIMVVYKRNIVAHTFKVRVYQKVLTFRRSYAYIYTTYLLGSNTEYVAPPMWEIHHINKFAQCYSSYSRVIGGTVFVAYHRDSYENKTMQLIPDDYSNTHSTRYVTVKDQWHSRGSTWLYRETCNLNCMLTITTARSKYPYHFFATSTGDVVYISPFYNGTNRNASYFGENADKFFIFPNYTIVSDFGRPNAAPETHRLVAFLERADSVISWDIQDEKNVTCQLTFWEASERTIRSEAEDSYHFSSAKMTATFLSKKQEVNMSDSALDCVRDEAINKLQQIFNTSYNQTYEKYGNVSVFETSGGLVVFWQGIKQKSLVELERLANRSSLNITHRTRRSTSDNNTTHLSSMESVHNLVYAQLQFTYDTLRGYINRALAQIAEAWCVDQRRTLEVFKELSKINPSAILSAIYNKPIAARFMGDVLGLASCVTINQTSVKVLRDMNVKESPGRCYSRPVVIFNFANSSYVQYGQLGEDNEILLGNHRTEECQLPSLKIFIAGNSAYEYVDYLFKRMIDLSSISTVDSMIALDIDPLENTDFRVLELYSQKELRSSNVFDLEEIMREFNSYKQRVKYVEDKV

B2: no binding (tested: 1 µg/ml).
B3: no binding (tested: 1 µg/ml).
B4: no binding (tested: 1 µg/ml).
B5: no binding (tested: 1 µg/ml).
B7: no binding (tested: 1 µg/ml).
B8: no binding (tested: 1 µg/ml).
B9: no binding (tested: 1 µg/ml).
B10: no binding (tested: 1 µg/ml).
B11: no binding (tested: 1 µg/ml).
B13: no binding (tested: 1 µg/ml).

Target: T1, revertant virus (AD169 CMV with the …)
Experiment: cell-based or functional assay

Point of comparison: B5, “Neutralization in ARPE-19 cells EC50” value 0.1 µg/mL. Against it:
- B1 — 1000-fold higher, 100 µg/mL
- B2 — 5-fold lower, 0.02 µg/mL
- B3 — 1.7-fold lower, 0.06 µg/mL
- B4 — 2-fold lower, 0.05 µg/mL
- B6 — 1000-fold higher, 100 µg/mL
- B7 — 3.3-fold lower, 0.03 µg/mL
- B8 — 5-fold lower, 0.02 µg/mL
- B9 — 5-fold lower, 0.02 µg/mL
- B10 — 10-fold lower, 0.01 µg/mL
- B11 — 10-fold lower, 0.01 µg/mL
- B12 — 37-fold higher, 3.71 µg/mL
- B13 — 3.3-fold lower, 0.03 µg/mL
- B14 — 7.9-fold higher, 0.79 µg/mL

Point of comparison: B11, “Neutralization in MRC-5 cells EC50” value 100 µg/mL. Against it:
- B1 — the same, 100 µg/mL
- B2 — the same, 100 µg/mL
- B3 — the same, 100 µg/mL
- B4 — 1200-fold lower, 0.08 µg/mL
- B5 — 480-fold lower, 0.21 µg/mL
- B6 — the same, 100 µg/mL
- B7 — 1100-fold lower, 0.09 µg/mL
- B8 — 1200-fold lower, 0.08 µg/mL
- B9 — 1700-fold lower, 0.06 µg/mL
- B10 — the same, 100 µg/mL
- B12 — the same, 100 µg/mL
- B13 — the same, 100 µg/mL
- B14 — the same, 100 µg/mL
